In assay [1] the target is r244 rabbit anti-human TnTuORF antiserum. Put plainly: competitive radioimmunoassay with r244 and 125I-TnTuORF(Tyr) tracer.
Assay [2] shares this target. Kind of assay: competitive radioimmunoassay, TnTuORF standard against 125I-TnTuORF(Tyr) tracer for r244.

Molecule MAPEGWVIVVIS [Synthetic human Troponin T upstream open reading frame (TnTuORF) peptide] had a Cross reactivity with TnTuORF antiserum (%) in assay [1] of 100%. The molecule further displayed an ED50 in assay [2] of 0.458 µg/mL.

Values taken from patent publication US9784749.
